IntAct's records for PubMed 21423148

B1: Calcium-binding protein 39 (Homo sapiens), Q9Y376 (parent)
chain: MPFPFGKSHKSPADIVKNLKESMAVLEKQDISDKKAEKATEEVSKNLVAMKEILYGTNEKEPQTEAVAQLAQELYNSGLLSTLVADLQLIDFEGKKDVAQIFNNILRRQIGTRTPTVEYICTQQNILFMLLKGYESPEIALNCGIMLRECIRHEPLAKIILWSEQFYDFFRYVEMSTFDIASDAFATFKDLLTRHKLLSAEFLEQHYDRFFSEYEKLLHSENYVTKRQSLKLLGELLLDRHNFTIMTKYISKPENLKLMMNLLRDKSRNIQFEAFHVFKVFVANPNKTQPILDILLKNQAKLIEFLSKFQNDRTEDEQFNDEKTYLVKQIRDLKRPAQQEA
B2: Calcium-binding protein 39 (Homo sapiens), Q9Y376 (parent)
chain: B1 chain
partner: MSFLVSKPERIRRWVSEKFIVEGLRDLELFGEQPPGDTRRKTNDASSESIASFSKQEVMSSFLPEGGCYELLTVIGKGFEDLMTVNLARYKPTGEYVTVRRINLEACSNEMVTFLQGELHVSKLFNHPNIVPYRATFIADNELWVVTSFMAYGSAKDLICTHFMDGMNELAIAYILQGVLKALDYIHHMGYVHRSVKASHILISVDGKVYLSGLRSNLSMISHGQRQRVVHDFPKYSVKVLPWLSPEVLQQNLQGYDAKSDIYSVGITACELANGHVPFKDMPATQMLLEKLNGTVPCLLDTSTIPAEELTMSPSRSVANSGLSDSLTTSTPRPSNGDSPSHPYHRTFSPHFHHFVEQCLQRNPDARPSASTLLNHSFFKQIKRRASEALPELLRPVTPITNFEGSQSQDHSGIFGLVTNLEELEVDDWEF

What was measured:
[1] = variants of: B1; conditions: with stk39_human STK39, Q9UEW8
[2] = variants of: B1; conditions: with oxsr1_human OXSR1, O95747
[3] = variants of: B1; conditions: with stk26_human STK26, Q9P289
[4] = variants of: B1; conditions: with stk26_human STK26, Q9P289; remark: listed apart in the source
[5] = variants of: B1; conditions: with stk39_human STK39, Q9UEW8; remark: listed apart in the source
[6] = variants of: B1; conditions: with oxsr1_human OXSR1, O95747; remark: listed apart in the source
[7] = variants of: B1; conditions: with stk25_human STK25, O00506
[8] = variants of: B1; conditions: with stk26_human STK26, Q9P289; remark: listed apart in the source
[9] = variants of: B1; conditions: with stk39_human STK39, Q9UEW8; remark: listed apart in the source
[10] = variants of: B1; conditions: with oxsr1_human OXSR1, O95747; remark: listed apart in the source
[11] = variants of: B2; conditions: with straa_human STRADA

stk26_human STK26, Q9P289, sequence (Q9P289 whole entry, looked up): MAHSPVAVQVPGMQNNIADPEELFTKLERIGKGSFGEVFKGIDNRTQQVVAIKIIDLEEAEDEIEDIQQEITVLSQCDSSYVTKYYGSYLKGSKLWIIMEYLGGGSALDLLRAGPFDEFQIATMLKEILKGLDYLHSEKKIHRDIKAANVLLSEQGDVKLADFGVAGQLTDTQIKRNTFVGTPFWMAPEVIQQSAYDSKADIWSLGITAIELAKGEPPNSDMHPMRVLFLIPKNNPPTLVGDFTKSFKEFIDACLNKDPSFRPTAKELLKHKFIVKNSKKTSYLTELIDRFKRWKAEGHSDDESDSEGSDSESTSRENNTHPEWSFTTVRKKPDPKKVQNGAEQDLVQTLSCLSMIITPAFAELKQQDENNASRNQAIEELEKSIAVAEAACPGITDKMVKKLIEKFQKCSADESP
oxsr1_human OXSR1, O95747, sequence (O95747 whole entry, looked up): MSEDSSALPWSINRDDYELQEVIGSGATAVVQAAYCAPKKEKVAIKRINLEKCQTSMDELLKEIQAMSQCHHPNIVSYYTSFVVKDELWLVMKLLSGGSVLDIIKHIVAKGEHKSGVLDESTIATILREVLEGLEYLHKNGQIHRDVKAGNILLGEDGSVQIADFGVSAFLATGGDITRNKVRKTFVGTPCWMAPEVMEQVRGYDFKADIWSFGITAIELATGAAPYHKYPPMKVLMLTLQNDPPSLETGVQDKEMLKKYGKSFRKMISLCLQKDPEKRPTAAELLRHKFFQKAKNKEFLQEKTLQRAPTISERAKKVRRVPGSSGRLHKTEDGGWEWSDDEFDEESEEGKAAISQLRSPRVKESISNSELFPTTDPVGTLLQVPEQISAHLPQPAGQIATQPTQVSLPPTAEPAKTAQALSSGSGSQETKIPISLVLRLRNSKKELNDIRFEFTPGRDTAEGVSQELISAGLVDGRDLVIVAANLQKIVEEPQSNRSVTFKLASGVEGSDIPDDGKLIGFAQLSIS
stk25_human STK25, O00506, sequence (O00506 whole entry, looked up): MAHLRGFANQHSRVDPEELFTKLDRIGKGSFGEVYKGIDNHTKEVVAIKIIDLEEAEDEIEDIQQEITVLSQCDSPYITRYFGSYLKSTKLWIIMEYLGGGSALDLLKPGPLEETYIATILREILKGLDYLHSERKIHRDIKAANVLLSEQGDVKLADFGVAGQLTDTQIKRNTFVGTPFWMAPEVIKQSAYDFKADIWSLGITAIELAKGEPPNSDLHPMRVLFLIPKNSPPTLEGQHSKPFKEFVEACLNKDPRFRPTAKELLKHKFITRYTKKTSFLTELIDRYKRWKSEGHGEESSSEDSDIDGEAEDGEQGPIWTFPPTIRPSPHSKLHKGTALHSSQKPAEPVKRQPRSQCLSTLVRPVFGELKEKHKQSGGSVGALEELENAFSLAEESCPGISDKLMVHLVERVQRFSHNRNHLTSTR

Row | Variant | effect of a mutation on the interaction [1] | effect of a mutation on the interaction [2] | effect of a mutation on the interaction [3] | effect of a mutation on the interaction [4] | effect of a mutation on the interaction [5] | effect of a mutation on the interaction [6] | effect of a mutation on the interaction [7] | effect of a mutation on the interaction [8] | effect of a mutation on the interaction [9] | effect of a mutation on the interaction [10] | effect of a mutation on the interaction [11]
1 | M260A | disrupting interaction | disrupting interaction | disrupting interaction | decreasing interaction | decreasing interaction | decreasing interaction | disrupting interaction | – | – | – | –
2 | R227A | disrupting interaction | disrupting interaction | disrupting interaction | – | – | – | disrupting interaction | decreasing interaction | decreasing interaction | decreasing interaction | –
3 | R227A | – | – | – | – | – | – | – | – | – | – | disrupting interaction
4 | M260A | – | – | – | – | – | – | – | – | – | – | disrupting interaction
